Data as given in patent EP1987837A1 (Technische Universität Dresden Medizinische Fakultät Carl …, dated 2008).

Assays:
[1] = molecular target: endogenous β2-syntrophin (rat) (UniProt P01322); assay: cell-based or functional assay
35S-ICA512601-979 = molecular target: T1, 35S-ICA512601-979 (Homo sapiens (Human), UniProt Q16849 601-979, 35S-methionine labelled); assay: GST pull-down, SDS-PAGE and autoradiography
T1 construct: also called cytoplasmic portion of ICA512
T1 sequence: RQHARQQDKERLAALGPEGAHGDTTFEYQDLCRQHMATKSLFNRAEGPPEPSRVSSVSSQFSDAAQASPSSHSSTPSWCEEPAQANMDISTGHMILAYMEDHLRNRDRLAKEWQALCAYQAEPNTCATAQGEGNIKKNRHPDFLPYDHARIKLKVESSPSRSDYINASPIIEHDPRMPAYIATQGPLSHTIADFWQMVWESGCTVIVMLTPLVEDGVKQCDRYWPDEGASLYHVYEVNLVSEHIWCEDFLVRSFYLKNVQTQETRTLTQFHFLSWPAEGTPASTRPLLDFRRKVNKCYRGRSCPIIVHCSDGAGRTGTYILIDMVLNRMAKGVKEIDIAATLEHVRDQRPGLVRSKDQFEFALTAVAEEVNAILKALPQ

35S-ICA512700-979 = molecular target: T2, 35S-ICA512700-979 (Homo sapiens (Human), UniProt Q16849 700-979, 35S-methionine labelled); assay: GST pull-down, SDS-PAGE and autoradiography
T2 construct: In vitro transcribed and translated from pET28a; also called PTP portion of ICA512
T2 sequence: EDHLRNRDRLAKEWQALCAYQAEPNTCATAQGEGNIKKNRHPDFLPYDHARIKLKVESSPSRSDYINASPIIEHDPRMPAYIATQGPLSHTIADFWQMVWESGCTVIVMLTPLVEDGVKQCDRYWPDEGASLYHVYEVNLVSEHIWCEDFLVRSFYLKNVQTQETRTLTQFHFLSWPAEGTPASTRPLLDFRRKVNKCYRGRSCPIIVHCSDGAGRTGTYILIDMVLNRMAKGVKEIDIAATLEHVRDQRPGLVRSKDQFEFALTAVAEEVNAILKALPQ

35S-Luciferase = molecular target: T3, 35S-Luciferase (firefly, UniProt P08659 1-550 = luciferase, 35S-methionine labelled); assay: GST pull-down, SDS-PAGE and autoradiography
T3 construct: Control protein in the pull-down assays; also called firefly luciferase; control protein
T3 sequence (P08659 whole entry): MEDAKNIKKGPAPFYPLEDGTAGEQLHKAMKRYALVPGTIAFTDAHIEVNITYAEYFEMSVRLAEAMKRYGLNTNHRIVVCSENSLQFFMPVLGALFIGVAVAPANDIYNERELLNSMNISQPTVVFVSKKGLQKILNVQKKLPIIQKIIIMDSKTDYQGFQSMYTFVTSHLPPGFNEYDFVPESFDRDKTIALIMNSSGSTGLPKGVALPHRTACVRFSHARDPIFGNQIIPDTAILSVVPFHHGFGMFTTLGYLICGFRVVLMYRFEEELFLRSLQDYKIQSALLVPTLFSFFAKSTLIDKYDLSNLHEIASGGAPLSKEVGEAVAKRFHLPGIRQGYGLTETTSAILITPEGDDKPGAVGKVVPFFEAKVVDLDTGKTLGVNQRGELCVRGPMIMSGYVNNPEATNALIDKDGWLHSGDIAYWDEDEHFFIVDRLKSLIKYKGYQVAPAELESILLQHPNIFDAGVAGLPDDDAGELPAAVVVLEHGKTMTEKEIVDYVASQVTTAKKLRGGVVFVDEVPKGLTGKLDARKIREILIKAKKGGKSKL

[2] = molecular target: the molecule itself; assay: co-immunoprecipitation from INS-1E cells

Q: For “ICA512-TMF (from UniProt Q63259 41-983) (receptor)”, which insulin stimulation index after knockdown of β2-syntrophin, compared to control cells [1] is on record?
A: 34%

B1: GST-ICA512800-979 (other)
chain: ESGCTVIVMLTPLVEDGVKQCDRYWPDEGASLYHVYEVNLVSEHIWCEDFLVRSFYLKNVQTQETRTLTQFHFLSWPAEGTPASTRPLLDFRRKVNKCYRGRSCPIIVHCSDGAGRTGTYILIDMVLNRMAKGVKEIDIAATLEHVRDQRPGLVRSKDQFEFALTAVAEEVNAILKALPQ
notes: Bacterially expressed, on glutathione sepharose beads; not shown: glutathione S-transferase (GST) fusion partner
Q: Does B1 bind (35S-ICA512601-979)?
A: no binding

Q: Does B1 bind (35S-ICA512700-979)?
A: no binding

B2: GST-ICA512601-979 (other)
chain: RQHARQQDKERLAALGPEGAHGDTTFEYQDLCRQHMATKSLFNRAEGPPEPSRVSSVSSQFSDAAQASPSSHSSTPSWCEEPAQANMDISTGHMILAYMEDHLRNRDRLAKEWQALCAYQAEPNTCATAQGEGNIKKNRHPDFLPYDHARIKLKVESSPSRSDYINASPIIEHDPRMPAYIATQGPLSHTIADFWQMVWESGCTVIVMLTPLVEDGVKQCDRYWPDEGASLYHVYEVNLVSEHIWCEDFLVRSFYLKNVQTQETRTLTQFHFLSWPAEGTPASTRPLLDFRRKVNKCYRGRSCPIIVHCSDGAGRTGTYILIDMVLNRMAKGVKEIDIAATLEHVRDQRPGLVRSKDQFEFALTAVAEEVNAILKALPQ
notes: Bacterially expressed, coupled to glutathione sepharose beads (1 µg); The construct is only cited (Ort et al., 2000); not shown: glutathione S-transferase (GST) fusion partner
Q: Does B2 bind (35S-Luciferase)?
A: no binding

B3: pro-ICA512 (receptor, rat, UniProt Q63259 41-983, looked up)
chain: ISAHGCLFDRRLCSHLEVCIQDGLFGQCQAGVGQARPLLQVTSPVLQRLQGVLRQLMSQGLSWHDDLTQYVISQEMERIPRLRPPEPHPRDRSGSVPRRAGPAGELLSQGNPTGSSPAVQGLSRPPGDGNGAGVGSPLSSLQAELLPPLLEHLLMPPQPPHPSLTYEPALLQPYLFQQFGSRDGSRGSESASGVVGHLAKAEDPVLFSRSLSKAILGTHSGHSFGDLTGPSPAQLFQDSGLLYMAQELPVPGRARAPRLPEEGGSSRAEDSSEGHEEEVLGGHGEKSPPQAVQADVSLQRLAAVLAGYGVELRQLTPEQLSTLLTLLQLLPKGTGRHLGGAVNGGADVKKTIEEQMQRGDTADARPPTPLLPGHPTASSTSIKVRQVLSPGFPEPPKTSSPLGISAVLLEKKSPLGQSQPTVVGQPSARPSAEEYGYIVTDQKPLSLVAGVKLLEILAEHVHMTSGSFINISVVGPAVTFRIRHNEQNLSLADVTQQAGLVKSELEAQTGLQILQTGVGQREESAAVLPRQAHGISPMRSLLLTLVALAGVAGLLVALAVALCMRHHSKQRDKERLAALGPEGAHGDTTFEYQDLCRQHMATKSLFNRAEGQPEPSRVSSVSSQFSDAAQASPSSHSSTPSWCEEPAQANMDISTGHMILAYMEDHLRNRDRLAKEWQALCAYQAEPNTCATAQGEGNIKKNRHPDFLPYDHARIKLKVESSPSRSDYINASPIIEHDPRMPAYIATQGPLSHTIADFWQMVWESGCTVIVMLTPLVEDGVKQCDRYWPDEGSSLYHVYEVNLVSEHIWCEDFLVRSFYLKNVQTQETRTLTQFHFLSWPAEGTPASTRPLLDFRRKVNKCYRGRSCPIIVHCSDGAGRTGTYILIDMVLNRMAKGVKEIDIAATLEHVRDQRPGLVRSKDQFEFALTAVAEEVNAILKALPQ
notes: In cells expressing ICA512-GFP, one partner may be the GFP-tagged form; also called pro-form of ICA512, glycoprotein of 110 kDa
Q: Does B3 bind [2]?
A: no binding
